Results taken from the supplement of paper PMC10065799, “High-throughput profiling of sequence recognition by tyrosine kinases and SH2 domains using bacterial peptide display” (eLife, 2023).

Experiments:
FGFR1 = FGFR1 (UniProt P11362); experiment: phosphorylation enrichment, bacterial display (enrichment ratio); higher = better substrate or ligand; peptides without Tyr show the background
c-Src = experiment: as above
Fes = Fes (UniProt P07332); experiment: as above
c-Abl (mouse) = experiment: as above
Jak2 = Jak2 (UniProt O60674); experiment: as above
EPHB2 = EPHB2 (UniProt P29323); experiment: as above
Chain of EPHB2 (P29323 whole entry, looked up): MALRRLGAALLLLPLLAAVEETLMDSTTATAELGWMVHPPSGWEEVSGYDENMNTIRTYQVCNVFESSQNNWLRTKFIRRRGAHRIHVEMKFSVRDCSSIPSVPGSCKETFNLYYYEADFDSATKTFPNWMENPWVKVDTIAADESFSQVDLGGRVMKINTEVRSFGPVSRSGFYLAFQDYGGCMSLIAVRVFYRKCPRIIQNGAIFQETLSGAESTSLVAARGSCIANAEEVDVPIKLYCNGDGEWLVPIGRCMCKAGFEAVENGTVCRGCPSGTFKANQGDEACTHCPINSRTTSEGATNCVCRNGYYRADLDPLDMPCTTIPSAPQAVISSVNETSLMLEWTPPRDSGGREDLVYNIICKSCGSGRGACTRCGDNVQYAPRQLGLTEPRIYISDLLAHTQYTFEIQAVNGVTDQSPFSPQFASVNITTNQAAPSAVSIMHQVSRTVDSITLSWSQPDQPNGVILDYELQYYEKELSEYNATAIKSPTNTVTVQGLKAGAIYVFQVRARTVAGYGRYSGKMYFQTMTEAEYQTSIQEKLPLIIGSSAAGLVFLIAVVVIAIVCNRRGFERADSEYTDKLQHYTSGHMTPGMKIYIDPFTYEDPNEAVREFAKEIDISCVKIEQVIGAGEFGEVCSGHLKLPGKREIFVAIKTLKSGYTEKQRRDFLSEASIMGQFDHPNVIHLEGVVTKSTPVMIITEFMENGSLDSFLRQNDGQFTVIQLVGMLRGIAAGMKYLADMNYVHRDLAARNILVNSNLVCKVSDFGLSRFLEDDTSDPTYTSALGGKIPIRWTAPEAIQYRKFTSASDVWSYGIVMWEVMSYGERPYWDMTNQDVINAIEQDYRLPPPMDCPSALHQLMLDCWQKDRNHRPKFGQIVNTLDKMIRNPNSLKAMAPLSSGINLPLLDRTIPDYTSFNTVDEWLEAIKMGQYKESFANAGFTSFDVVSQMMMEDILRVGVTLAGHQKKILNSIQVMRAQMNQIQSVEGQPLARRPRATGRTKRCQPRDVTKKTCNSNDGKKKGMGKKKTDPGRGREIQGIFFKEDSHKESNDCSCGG

AncSZ = experiment: as above
Hck = Hck (UniProt P08631); experiment: as above
Chain of Hck (P08631 whole entry, looked up): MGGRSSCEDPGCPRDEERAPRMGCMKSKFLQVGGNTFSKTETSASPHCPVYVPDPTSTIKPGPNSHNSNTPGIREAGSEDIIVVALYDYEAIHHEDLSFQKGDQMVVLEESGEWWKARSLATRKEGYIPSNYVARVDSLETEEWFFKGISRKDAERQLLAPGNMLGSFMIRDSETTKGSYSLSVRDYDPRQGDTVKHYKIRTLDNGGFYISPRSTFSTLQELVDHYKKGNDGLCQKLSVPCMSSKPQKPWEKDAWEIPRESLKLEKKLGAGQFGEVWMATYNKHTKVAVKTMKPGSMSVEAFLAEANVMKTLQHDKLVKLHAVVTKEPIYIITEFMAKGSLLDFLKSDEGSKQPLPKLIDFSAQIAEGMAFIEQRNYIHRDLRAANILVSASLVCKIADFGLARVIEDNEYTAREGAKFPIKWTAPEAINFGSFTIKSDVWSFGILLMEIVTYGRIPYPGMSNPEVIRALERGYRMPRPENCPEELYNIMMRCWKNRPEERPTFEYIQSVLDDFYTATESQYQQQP

Fyn = Fyn (UniProt P06241); experiment: as above
Chain of Fyn (P06241 whole entry, looked up): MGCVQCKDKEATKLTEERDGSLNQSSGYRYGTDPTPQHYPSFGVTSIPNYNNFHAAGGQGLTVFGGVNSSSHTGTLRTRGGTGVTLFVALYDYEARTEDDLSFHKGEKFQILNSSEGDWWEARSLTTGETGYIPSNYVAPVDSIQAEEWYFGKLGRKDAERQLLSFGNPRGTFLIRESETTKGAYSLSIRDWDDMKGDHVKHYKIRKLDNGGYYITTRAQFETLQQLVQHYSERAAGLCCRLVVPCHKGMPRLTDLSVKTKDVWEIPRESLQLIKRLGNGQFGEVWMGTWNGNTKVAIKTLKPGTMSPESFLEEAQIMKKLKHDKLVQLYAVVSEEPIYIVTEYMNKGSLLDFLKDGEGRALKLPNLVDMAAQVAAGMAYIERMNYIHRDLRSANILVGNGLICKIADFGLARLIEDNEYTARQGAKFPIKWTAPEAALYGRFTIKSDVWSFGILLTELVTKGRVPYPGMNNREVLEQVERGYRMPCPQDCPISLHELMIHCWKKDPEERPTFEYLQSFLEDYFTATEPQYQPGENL

EPHB1 = EPHB1 (UniProt P54762); experiment: as above
MERTK = MERTK (UniProt Q12866); experiment: as above
Chain of MERTK (Q12866 whole entry, looked up): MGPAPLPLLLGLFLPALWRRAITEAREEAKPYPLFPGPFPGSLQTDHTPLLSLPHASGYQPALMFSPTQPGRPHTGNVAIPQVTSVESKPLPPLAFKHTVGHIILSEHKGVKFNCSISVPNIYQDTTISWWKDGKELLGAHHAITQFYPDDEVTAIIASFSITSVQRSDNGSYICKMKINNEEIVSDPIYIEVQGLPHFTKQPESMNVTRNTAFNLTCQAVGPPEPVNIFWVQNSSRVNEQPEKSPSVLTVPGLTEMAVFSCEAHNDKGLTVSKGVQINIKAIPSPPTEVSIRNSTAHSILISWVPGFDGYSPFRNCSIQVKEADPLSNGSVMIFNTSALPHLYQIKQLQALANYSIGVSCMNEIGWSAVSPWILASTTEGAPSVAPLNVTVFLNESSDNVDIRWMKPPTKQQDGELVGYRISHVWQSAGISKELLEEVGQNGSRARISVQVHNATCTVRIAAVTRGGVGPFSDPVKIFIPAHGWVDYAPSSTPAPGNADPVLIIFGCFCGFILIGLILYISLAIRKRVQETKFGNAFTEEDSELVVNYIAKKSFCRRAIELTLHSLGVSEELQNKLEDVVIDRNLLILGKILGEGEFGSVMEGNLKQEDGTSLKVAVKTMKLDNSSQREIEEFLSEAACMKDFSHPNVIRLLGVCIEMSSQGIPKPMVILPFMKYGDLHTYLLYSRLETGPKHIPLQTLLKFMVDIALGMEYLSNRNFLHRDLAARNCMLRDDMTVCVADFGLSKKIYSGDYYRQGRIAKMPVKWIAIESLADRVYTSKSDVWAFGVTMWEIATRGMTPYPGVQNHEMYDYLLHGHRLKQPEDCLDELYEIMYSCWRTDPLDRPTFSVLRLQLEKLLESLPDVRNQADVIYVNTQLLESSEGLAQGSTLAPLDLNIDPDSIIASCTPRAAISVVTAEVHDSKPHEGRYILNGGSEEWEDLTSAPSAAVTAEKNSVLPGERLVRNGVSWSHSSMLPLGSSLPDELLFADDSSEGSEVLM

Fer (mouse) = experiment: as above
FGFR3 = FGFR3 (UniProt P22607); experiment: as above
Chain of FGFR3 (P22607 whole entry, looked up): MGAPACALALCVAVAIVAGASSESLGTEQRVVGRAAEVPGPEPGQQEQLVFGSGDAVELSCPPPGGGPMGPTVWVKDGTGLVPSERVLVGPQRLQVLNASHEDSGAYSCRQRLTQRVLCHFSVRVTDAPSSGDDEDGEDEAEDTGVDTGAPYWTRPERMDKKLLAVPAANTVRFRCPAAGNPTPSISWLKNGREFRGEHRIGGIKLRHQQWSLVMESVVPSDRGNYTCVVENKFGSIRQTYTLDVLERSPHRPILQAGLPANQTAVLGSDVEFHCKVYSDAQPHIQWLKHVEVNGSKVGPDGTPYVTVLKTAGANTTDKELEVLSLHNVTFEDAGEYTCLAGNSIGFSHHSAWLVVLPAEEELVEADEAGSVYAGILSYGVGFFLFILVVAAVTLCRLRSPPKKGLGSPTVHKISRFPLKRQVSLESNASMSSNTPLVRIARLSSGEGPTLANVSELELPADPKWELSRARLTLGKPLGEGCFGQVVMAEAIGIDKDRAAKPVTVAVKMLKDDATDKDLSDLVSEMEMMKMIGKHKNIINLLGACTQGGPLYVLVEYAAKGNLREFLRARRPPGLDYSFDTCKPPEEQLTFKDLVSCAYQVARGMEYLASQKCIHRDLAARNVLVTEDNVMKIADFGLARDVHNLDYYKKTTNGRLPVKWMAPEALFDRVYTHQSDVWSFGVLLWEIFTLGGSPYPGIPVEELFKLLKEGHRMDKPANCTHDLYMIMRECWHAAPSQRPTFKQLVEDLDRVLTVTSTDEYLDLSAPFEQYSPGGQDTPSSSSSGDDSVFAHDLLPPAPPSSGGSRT

Grb2 SH2 = Grb2 SH2 (UniProt P62993); experiment: SH2 binding enrichment of the phosphorylated peptide, bacterial display (enrichment ratio); higher = better substrate or ligand; peptides without Tyr show the background
Chain of Grb2 SH2 (P62993 whole entry, looked up): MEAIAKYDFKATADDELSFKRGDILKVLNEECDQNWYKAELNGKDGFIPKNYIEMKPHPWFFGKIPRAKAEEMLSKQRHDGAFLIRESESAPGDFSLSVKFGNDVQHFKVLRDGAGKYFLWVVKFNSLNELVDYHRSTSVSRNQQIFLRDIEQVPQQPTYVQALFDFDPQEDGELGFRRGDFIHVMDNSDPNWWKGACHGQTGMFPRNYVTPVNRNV

c-Src SH2 = experiment: as above
SHP2-C SH2 = experiment: as above
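For SH2 binding enrichment of the phosphorylated peptide, bacterial display in this document: peptide library displayed on the E. coli surface as eCPX fusions, selected cells deep-sequenced, score is each peptide's frequency after selection divided by its frequency in the input.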
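For phosphorylation enrichment, bacterial display in this document: 11-residue human phosphosite peptides and single-mutation variants displayed on the E. coli surface, counted by deep sequencing, each peptide's frequency after selection divided by its frequency in the unselected input library; frequency after pTyr selection over input frequency; kinase dosed for 20-30% of maximal phosphorylation in three min.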

Chain of FGFR1 (P11362 whole entry, looked up): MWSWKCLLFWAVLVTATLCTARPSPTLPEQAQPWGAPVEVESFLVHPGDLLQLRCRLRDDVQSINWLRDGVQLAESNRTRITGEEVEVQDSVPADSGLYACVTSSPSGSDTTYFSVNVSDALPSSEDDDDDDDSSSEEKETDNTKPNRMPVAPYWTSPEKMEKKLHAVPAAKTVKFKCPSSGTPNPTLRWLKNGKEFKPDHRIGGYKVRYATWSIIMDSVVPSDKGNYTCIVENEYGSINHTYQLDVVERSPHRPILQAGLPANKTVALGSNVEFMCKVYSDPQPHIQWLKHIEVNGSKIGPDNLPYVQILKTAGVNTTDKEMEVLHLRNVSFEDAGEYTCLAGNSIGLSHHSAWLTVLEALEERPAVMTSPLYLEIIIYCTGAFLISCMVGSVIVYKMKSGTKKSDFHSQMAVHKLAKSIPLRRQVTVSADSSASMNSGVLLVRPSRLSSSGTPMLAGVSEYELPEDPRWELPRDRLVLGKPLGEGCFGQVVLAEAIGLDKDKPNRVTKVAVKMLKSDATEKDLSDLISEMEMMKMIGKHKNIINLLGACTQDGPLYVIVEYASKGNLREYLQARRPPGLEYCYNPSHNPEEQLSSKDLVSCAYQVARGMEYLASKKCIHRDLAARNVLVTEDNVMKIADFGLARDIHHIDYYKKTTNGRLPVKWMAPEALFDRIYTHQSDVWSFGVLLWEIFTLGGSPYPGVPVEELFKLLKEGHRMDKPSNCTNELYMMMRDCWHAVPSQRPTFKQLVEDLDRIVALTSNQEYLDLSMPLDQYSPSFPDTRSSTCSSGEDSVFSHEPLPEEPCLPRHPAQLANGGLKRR

Row | Sequence | phosphorylation enrichment (FGFR1) | phosphorylation enrichment (c-Src) | phosphorylation enrichment (Fes) | phosphorylation enrichment (c-Abl (mouse)) | phosphorylation enrichment (Jak2) | phosphorylation enrichment (EPHB2) | phosphorylation enrichment (AncSZ) | phosphorylation enrichment (Hck) | phosphorylation enrichment (Fyn) | phosphorylation enrichment (EPHB1) | phosphorylation enrichment (MERTK) | phosphorylation enrichment (Fer (mouse)) | phosphorylation enrichment (FGFR3) | SH2 binding enrichment (Grb2 SH2) | SH2 binding enrichment (c-Src SH2) | SH2 binding enrichment (SHP2-C SH2)
1 | HSRTRYERNIE [F2_Y434] | 0.835 | 0.683 | 0.986 | 0.929 | 0.742 | 0.531 | 1.08 | 0.766 | 0.465 | 0.851 | 0.763 | 1.14 | 0.663 | 1.31 | 0.752 | 1.37
2 | ICFSDYVEVAD [PHACTR1_Y525_R521C] | 2.34 | 0.549 | 1.55 | 0.985 | 1.28 | 1.42 | 2.01 | 0.698 | 0.555 | 1.81 | 0.459 | 0.609 | 2.26 | 0.607 | 0.467 | 0.515
3 | IDDLEYLHSQG [STK11_Y166_G163D] | 0.676 | 0.578 | 1.24 | 0.636 | 0.865 | 0.777 | 1.22 | 0.531 | 0.581 | 0.638 | 0.572 | 0.61 | 0.737 | 0.615 | 0.471 | 0.57
4 | IDLEKYKLLPE [DHFR_Y157] | 0.546 | 0.39 | 1.2 | 0.775 | 0.92 | 0.738 | 0.956 | 0.433 | 0.511 | 0.528 | 0.484 | 0.51 | 0.683 | 0.844 | 0.486 | 0.718
5 | IDPFIYTPFGS [CYP3A4_Y432_YF] | 0.584 | 6.49 | 1.12 | 0.773 | 0.73 | 0.549 | 0.927 | 5.82 | 6.96 | 0.686 | 2.86 | 1.67 | 0.779 | 0.861 | 0.604 | 1.06
6 | IDPYIYTPFGS [CYP3A4_Y432] | 2.44 | 6.67 | 0.956 | 0.865 | 2.38 | 0.701 | 1.43 | 5.71 | 7.45 | 0.702 | 3.67 | 1.9 | 1.66 | 0.775 | 0.713 | 0.868
7 | IEDNEYTAREG [HCK_Y411] | 0.722 | 0.67 | 1.33 | 1.08 | 1.33 | 0.491 | 1.56 | 0.588 | 0.576 | 0.637 | 0.519 | 0.515 | 0.759 | 0.803 | 0.539 | 0.666
8 | IEELTYVIKQD [STX5_Y137_I138V] | 0.515 | 0.691 | 1.26 | 0.705 | 1.18 | 0.659 | 1.23 | 0.528 | 0.494 | 0.643 | 0.363 | 0.54 | 0.954 | 0.654 | 0.354 | 0.602
9 | IENKLYGMSDS [RET_Y1062_P1067S] | 0.484 | 0.614 | 0.948 | 0.678 | 1.08 | 0.524 | 0.805 | 0.543 | 0.438 | 0.464 | 0.547 | 0.646 | 0.511 | 0.706 | 0.451 | 0.663
10 | IEPVIDVVQRR [ANOS1_Y217_Y217D] | 0.393 | 0.258 | 0.98 | 0.624 | 0.638 | 0.566 | 1.02 | 0.459 | 0.39 | 0.379 | 0.36 | 0.354 | 0.592 | 0.848 | 0.608 | 0.517
11 | IFETDYFQKGG [INSR_Y1189_R1191Q_YF] | 0.468 | 0.492 | 1.01 | 0.662 | 0.981 | 0.401 | 1.24 | 0.473 | 0.502 | 0.421 | 0.386 | 0.358 | 0.876 | 0.948 | 0.492 | 0.438
12 | IGRGSYAKVLL [PRKCZ_Y263] | 0.348 | 0.34 | 0.545 | 0.468 | 0.458 | 0.367 | 0.611 | 0.419 | 0.384 | 0.363 | 0.452 | 0.375 | 0.394 | 0.996 | 5.41 | 11.5
13 | IGSHAYGDQFR [IDH1_Y135_R132S_YF] | 0.518 | 0.353 | 0.556 | 0.363 | 0.477 | 0.389 | 0.527 | 0.498 | 0.464 | 0.32 | 0.377 | 0.394 | 0.51 | 0.892 | 0.425 | 0.96
14 | IHFAIYFLKFS [ARMC9_Y107_L108F_YF] | 0.441 | 0.434 | 0.956 | 0.636 | 0.636 | 0.576 | 0.835 | 0.561 | 0.448 | 0.473 | 0.406 | 0.485 | 0.674 | 1.93 | 1.12 | 1.86
15 | IIWDSYTTNKV [GNB1_Y85] | 0.489 | 0.395 | 1.21 | 0.687 | 0.863 | 0.598 | 1.2 | 0.482 | 0.46 | 0.498 | 0.356 | 0.665 | 0.729 | 0.76 | 0.543 | 0.77
16 | IKGNMYYENSY [EGFR_Y112_R108K] | 0.535 | 0.54 | 0.874 | 0.632 | 0.591 | 0.583 | 0.746 | 0.462 | 0.503 | 0.469 | 0.946 | 0.609 | 0.641 | 6.83 | 4.57 | 0.713
17 | IKKLIYVFLVI [JAGN1_Y42_H44Y_YF] | 0.716 | 0.424 | 1.1 | 0.701 | 0.736 | 0.547 | 0.884 | 0.393 | 0.462 | 0.556 | 0.547 | 0.454 | 0.797 | 2 | 1.22 | 1.79

Row | Sequence | phosphorylation enrichment (FGFR1) | phosphorylation enrichment (c-Src) | phosphorylation enrichment (Fes) | phosphorylation enrichment (c-Abl (mouse)) | phosphorylation enrichment (Jak2) | phosphorylation enrichment (EPHB2) | phosphorylation enrichment (AncSZ) | phosphorylation enrichment (Hck) | phosphorylation enrichment (Fyn) | phosphorylation enrichment (EPHB1) | phosphorylation enrichment (MERTK) | phosphorylation enrichment (Fer (mouse)) | phosphorylation enrichment (FGFR3) | SH2 binding enrichment (Grb2 SH2) | SH2 binding enrichment (c-Src SH2) | SH2 binding enrichment (SHP2-C SH2)
18 | IKNSGYISRYL [EIF2AK3_Y585] | 0.513 | 0.448 | 0.711 | 0.558 | 0.538 | 0.406 | 0.558 | 0.33 | 0.4 | 0.443 | 0.404 | 0.376 | 0.531 | 1.08 | 0.706 | 1.01
19 | IKSSIYDNRNE [ARAP2_Y380_K384N] | 0.443 | 0.399 | 0.584 | 0.397 | 0.466 | 0.502 | 0.505 | 0.696 | 0.464 | 0.413 | 0.405 | 0.33 | 0.388 | 0.682 | 0.608 | 0.593
20 | ILGRFYERGSI [PAX5_Y73_T75R_YF] | 0.413 | 0.451 | 0.674 | 0.532 | 0.662 | 0.476 | 0.651 | 0.486 | 0.483 | 0.392 | 0.395 | 0.398 | 0.517 | 0.71 | 0.575 | 1.16
21 | INNIDYYKKTT [FGFR2_Y656] | 0.524 | 0.426 | 0.876 | 0.627 | 0.618 | 0.506 | 0.808 | 0.486 | 0.425 | 0.461 | 0.501 | 0.334 | 0.473 | 0.743 | 0.415 | 0.364
22 | IRRWVYPLTPE [EIF2B5_Y319] | 0.451 | 0.437 | 0.943 | 0.464 | 0.732 | 0.522 | 0.934 | 0.481 | 0.514 | 0.406 | 0.476 | 0.559 | 0.613 | 0.811 | 0.517 | 0.716
23 | IRTIDYRFTVC [IDS_Y497_W502C_YF] | 0.561 | 0.469 | 1.38 | 0.952 | 1.14 | 0.579 | 1.22 | 0.581 | 0.444 | 0.787 | 0.396 | 0.518 | 0.832 | 0.85 | 0.407 | 0.739
24 | ISKKIYDTIHD [CTNNA3_Y614] | 0.433 | 0.579 | 0.587 | 0.452 | 0.582 | 0.516 | 0.555 | 0.742 | 0.584 | 0.351 | 0.445 | 0.421 | 0.357 | 0.746 | 5.91 | 0.675
25 | ITKQEYDEAGP [ACTA1_Y364] | 0.475 | 0.422 | 1.08 | 0.679 | 0.881 | 0.488 | 1.14 | 0.51 | 0.563 | 0.553 | 0.423 | 0.494 | 0.689 | 0.869 | 7.7 | 0.786
26 | ITSLLYHVVGW [GBA_Y412_N409S] | 5.64 | 3.6 | 1.31 | 2 | 2.57 | 2.99 | 1.32 | 4.74 | 3.16 | 5.12 | 7.37 | 2.94 | 5 | 1.14 | 0.959 | 1.22
27 | IVEFAYNDKAI [PUM3_Y259_YF] | 0.432 | 0.474 | 0.74 | 0.538 | 0.668 | 0.59 | 0.783 | 0.52 | 0.475 | 0.395 | 0.494 | 0.406 | 0.525 | 0.642 | 0.419 | 0.719
28 | IYHLSYHHNCE [PDE6B_Y227_L228H] | 1.32 | 2.29 | 1.34 | 2.09 | 1.03 | 0.602 | 1.29 | 1.51 | 2.15 | 0.703 | 3.55 | 0.671 | 1.17 | 1.09 | 0.833 | 1.19
29 | KAIMTYVPSFY [ACTN4_Y260_S262P] | 0.378 | 0.472 | 0.646 | 0.803 | 0.639 | 0.63 | 0.67 | 0.425 | 0.52 | 0.413 | 0.439 | 0.415 | 0.509 | 0.818 | 1.15 | 1.03
30 | KDFTKYVAFIE [KDM4B_Y31_N29T_YF] | 0.442 | 0.457 | 1.06 | 0.614 | 0.879 | 0.626 | 0.849 | 0.462 | 0.521 | 0.55 | 0.481 | 0.422 | 0.623 | 0.894 | 0.674 | 1.79
31 | KDFTKYVAYIE [KDM4B_Y31_N29T] | 0.604 | 0.523 | 1.07 | 0.679 | 0.921 | 0.584 | 0.864 | 0.558 | 0.541 | 0.651 | 0.465 | 0.434 | 0.734 | 0.966 | 0.608 | 2.42
32 | KDHPDYKYQLR [SOX10_Y171_P175L] | 0.432 | 0.411 | 0.704 | 0.696 | 0.656 | 0.395 | 0.665 | 0.431 | 0.403 | 0.417 | 0.38 | 0.418 | 0.491 | 0.93 | 0.631 | 0.793
33 | KEAALYPHLLP [SQSTM1_Y383_P387L] | 0.512 | 0.366 | 0.757 | 0.549 | 0.649 | 0.544 | 0.648 | 0.438 | 0.405 | 0.427 | 0.432 | 0.419 | 0.481 | 0.87 | 0.436 | 0.645
